PMC10786891, “Massively parallel profiling of RNA-targeting CRISPR-Cas13d”

T1: EsCas13d, nuclease-dead (Eubacterium siraeum, UniProt B0MS50, R295A;H300A;R849A;H854A)
T1 sequence: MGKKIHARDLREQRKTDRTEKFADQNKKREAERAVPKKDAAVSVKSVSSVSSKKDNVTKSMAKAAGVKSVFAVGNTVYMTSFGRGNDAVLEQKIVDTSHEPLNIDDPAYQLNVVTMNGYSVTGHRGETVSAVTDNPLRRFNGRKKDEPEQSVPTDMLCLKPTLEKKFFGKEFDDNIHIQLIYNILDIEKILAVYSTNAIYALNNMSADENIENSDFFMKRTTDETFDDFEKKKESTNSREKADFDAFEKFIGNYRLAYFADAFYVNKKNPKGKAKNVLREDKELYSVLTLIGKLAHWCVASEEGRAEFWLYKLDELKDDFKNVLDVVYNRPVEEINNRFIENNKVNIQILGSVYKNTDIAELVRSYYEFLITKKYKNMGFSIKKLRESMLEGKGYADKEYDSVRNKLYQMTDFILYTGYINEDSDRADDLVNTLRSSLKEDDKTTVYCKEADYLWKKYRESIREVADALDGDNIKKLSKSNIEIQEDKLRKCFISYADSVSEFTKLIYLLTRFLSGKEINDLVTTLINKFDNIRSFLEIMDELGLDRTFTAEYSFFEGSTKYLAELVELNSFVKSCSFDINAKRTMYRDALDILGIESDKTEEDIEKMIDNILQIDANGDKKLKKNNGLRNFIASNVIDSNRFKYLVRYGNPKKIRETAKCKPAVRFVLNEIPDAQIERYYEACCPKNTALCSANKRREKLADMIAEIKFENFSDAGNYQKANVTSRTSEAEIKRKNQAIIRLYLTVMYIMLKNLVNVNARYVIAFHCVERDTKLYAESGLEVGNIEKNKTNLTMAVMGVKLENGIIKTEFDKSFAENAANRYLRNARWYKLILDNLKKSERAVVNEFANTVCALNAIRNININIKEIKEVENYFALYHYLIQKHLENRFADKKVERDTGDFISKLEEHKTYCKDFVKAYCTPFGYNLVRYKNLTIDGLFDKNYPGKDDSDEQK

B1: target 1 U3A,G12U (mixed)
RNA 1: CACCCGUGCAAAAAUGCAGGGGUCUAAAACUGAGCGGAUAACCUCUCUAUGG
RNA 2: GGGAAUGGAUCCACAUCUACGAAUUCGUACCAUAGAGAGUUUAUCCGCACACCGAGAUCGGAAGAGCACACGU
B2: target 1 C2G,A20U (mixed)
RNA 1: CACCCGUGCAAAAAUGCAGGGGUCUAAAACUGAGCGGAUAACCUCUCUAUGG
RNA 2: GGGAAUGGAUCCACAUCUACGAAUUCGUACCUUAGAGAGGUUAUCCGCUGACCGAGAUCGGAAGAGCACACGU
B3: target 1 insC 3' of 12,insA 3' of 7 (mixed)
RNA 1: CACCCGUGCAAAAAUGCAGGGGUCUAAAACUGAGCGGAUAACCUCUCUAUGG
RNA 2: GGGAAUGGAUCCACAUCUACGAAUUCGUACCAUAGAGAGGCUUAUCACGCUCACCGAGAUCGGAAGAGCACACGU
B4: target 1 insC 3' of 15,insA 3' of 13 (mixed)
RNA 1: CACCCGUGCAAAAAUGCAGGGGUCUAAAACUGAGCGGAUAACCUCUCUAUGG
RNA 2: GGGAAUGGAUCCACAUCUACGAAUUCGUACCAUAGAGCAGAGUUAUCCGCUCACCGAGAUCGGAAGAGCACACGU
B5: target 1 insC 3' of 18,insG 3' of 10 (mixed)
RNA 1: CACCCGUGCAAAAAUGCAGGGGUCUAAAACUGAGCGGAUAACCUCUCUAUGG
RNA 2: GGGAAUGGAUCCACAUCUACGAAUUCGUACCAUACGAGAGGUUGAUCCGCUCACCGAGAUCGGAAGAGCACACGU
B6: target 1 U10A (mixed)
RNA 1: CACCCGUGCAAAAAUGCAGGGGUCUAAAACUGAGCGGAUAACCUCUCUAUGG
RNA 2: GGGAAUGGAUCCACAUCUACGAAUUCGUACCAUAGAGAGGUAAUCCGCUCACCGAGAUCGGAAGAGCACACGU
B7: target 1 insU 3' of 7,insA 3' of 4 (mixed)
RNA 1: CACCCGUGCAAAAAUGCAGGGGUCUAAAACUGAGCGGAUAACCUCUCUAUGG
RNA 2: GGGAAUGGAUCCACAUCUACGAAUUCGUACCAUAGAGAGGUUAUCUCGCAUCACCGAGAUCGGAAGAGCACACGU
B8: target 1 insG 3' of 11,insU 3' of 5 (mixed)
RNA 1: CACCCGUGCAAAAAUGCAGGGGUCUAAAACUGAGCGGAUAACCUCUCUAUGG
RNA 2: GGGAAUGGAUCCACAUCUACGAAUUCGUACCAUAGAGAGGUGUAUCCGUCUCACCGAGAUCGGAAGAGCACACGU
B9: target 1 insA 3' of 13,insG 3' of 10 (mixed)
RNA 1: CACCCGUGCAAAAAUGCAGGGGUCUAAAACUGAGCGGAUAACCUCUCUAUGG
RNA 2: GGGAAUGGAUCCACAUCUACGAAUUCGUACCAUAGAGAGAGUUGAUCCGCUCACCGAGAUCGGAAGAGCACACGU
B10: target 1 insA 3' of 7,insA 3' of 6 (mixed)
RNA 1: CACCCGUGCAAAAAUGCAGGGGUCUAAAACUGAGCGGAUAACCUCUCUAUGG
RNA 2: GGGAAUGGAUCCACAUCUACGAAUUCGUACCAUAGAGAGGUUAUCACAGCUCACCGAGAUCGGAAGAGCACACGU
B11: target 1 insG 3' of 7,insU 3' of 6 (mixed)
RNA 1: CACCCGUGCAAAAAUGCAGGGGUCUAAAACUGAGCGGAUAACCUCUCUAUGG
RNA 2: GGGAAUGGAUCCACAUCUACGAAUUCGUACCAUAGAGAGGUUAUCGCUGCUCACCGAGAUCGGAAGAGCACACGU
B12: target 1 U10A,U19A (mixed)
RNA 1: CACCCGUGCAAAAAUGCAGGGGUCUAAAACUGAGCGGAUAACCUCUCUAUGG
RNA 2: GGGAAUGGAUCCACAUCUACGAAUUCGUACCAAAGAGAGGUAAUCCGCUCACCGAGAUCGGAAGAGCACACGU
B13: target 1 insU 3' of 17,insA 3' of 11 (mixed)
RNA 1: CACCCGUGCAAAAAUGCAGGGGUCUAAAACUGAGCGGAUAACCUCUCUAUGG
RNA 2: GGGAAUGGAUCCACAUCUACGAAUUCGUACCAUAGUAGAGGUAUAUCCGCUCACCGAGAUCGGAAGAGCACACGU
B14: target 1 C6G,A14C (mixed)
RNA 1: CACCCGUGCAAAAAUGCAGGGGUCUAAAACUGAGCGGAUAACCUCUCUAUGG
RNA 2: GGGAAUGGAUCCACAUCUACGAAUUCGUACCAUAGAGCGGUUAUCGGCUCACCGAGAUCGGAAGAGCACACGU
B15: target 1 G13A,A16G (mixed)
RNA 1: CACCCGUGCAAAAAUGCAGGGGUCUAAAACUGAGCGGAUAACCUCUCUAUGG
RNA 2: GGGAAUGGAUCCACAUCUACGAAUUCGUACCAUAGGGAAGUUAUCCGCUCACCGAGAUCGGAAGAGCACACGU
B16: target 1 complement block 2-6 (mixed)
RNA 1: CACCCGUGCAAAAAUGCAGGGGUCUAAAACUGAGCGGAUAACCUCUCUAUGG
RNA 2: GGGAAUGGAUCCACAUCUACGAAUUCGUACCAUAGAGAGGUUAUCGCGAGACCGAGAUCGGAAGAGCACACGU
B17: target 1 insC 3' of 5,insC 3' of 3 (mixed)
RNA 1: CACCCGUGCAAAAAUGCAGGGGUCUAAAACUGAGCGGAUAACCUCUCUAUGG
RNA 2: GGGAAUGGAUCCACAUCUACGAAUUCGUACCAUAGAGAGGUUAUCCGCCUCCACCGAGAUCGGAAGAGCACACGU
B18: target 1 G5C,C7G (mixed)
RNA 1: CACCCGUGCAAAAAUGCAGGGGUCUAAAACUGAGCGGAUAACCUCUCUAUGG
RNA 2: GGGAAUGGAUCCACAUCUACGAAUUCGUACCAUAGAGAGGUUAUGCCCUCACCGAGAUCGGAAGAGCACACGU
B19: target 1 complement block 7-11 (mixed)
RNA 1: CACCCGUGCAAAAAUGCAGGGGUCUAAAACUGAGCGGAUAACCUCUCUAUGG
RNA 2: GGGAAUGGAUCCACAUCUACGAAUUCGUACCAUAGAGAGGAAUAGCGCUCACCGAGAUCGGAAGAGCACACGU
B20: target 1 insA 3' of 21,insG 3' of 1 (mixed)
RNA 1: CACCCGUGCAAAAAUGCAGGGGUCUAAAACUGAGCGGAUAACCUCUCUAUGG
RNA 2: GGGAAUGGAUCCACAUCUACGAAUUCGUACCAAUAGAGAGGUUAUCCGCUCAGCCGAGAUCGGAAGAGCACACGU
B21: target 1 U10C,U11G (mixed)
RNA 1: CACCCGUGCAAAAAUGCAGGGGUCUAAAACUGAGCGGAUAACCUCUCUAUGG
RNA 2: GGGAAUGGAUCCACAUCUACGAAUUCGUACCAUAGAGAGGGCAUCCGCUCACCGAGAUCGGAAGAGCACACGU
B22: target 1 A1U,U10A (mixed)
RNA 1: CACCCGUGCAAAAAUGCAGGGGUCUAAAACUGAGCGGAUAACCUCUCUAUGG
RNA 2: GGGAAUGGAUCCACAUCUACGAAUUCGUACCAUAGAGAGGUAAUCCGCUCUCCGAGAUCGGAAGAGCACACGU
B23: target 1 A1C,U10A (mixed)
RNA 1: CACCCGUGCAAAAAUGCAGGGGUCUAAAACUGAGCGGAUAACCUCUCUAUGG
RNA 2: GGGAAUGGAUCCACAUCUACGAAUUCGUACCAUAGAGAGGUAAUCCGCUCCCCGAGAUCGGAAGAGCACACGU
B24: target 1 A1G,U10A (mixed)
RNA 1: CACCCGUGCAAAAAUGCAGGGGUCUAAAACUGAGCGGAUAACCUCUCUAUGG
RNA 2: GGGAAUGGAUCCACAUCUACGAAUUCGUACCAUAGAGAGGUAAUCCGCUCGCCGAGAUCGGAAGAGCACACGU

target: T1, EsCas13d, nuclease-dead; experiment: crRNA (strand 1, pre-loaded); Mg2+; 40 mM Tris-HCl pH 7.5, 150 mM NaCl, 6 mM MgCl2, 1 mM DTT, 0.1% Tween-20, 0.2 mg/ml BSA; 25 C; 10 min per concentration, then washed; conditions: tags: His6-TwinStrep-SUMO cleaved; N-terminal SNAP kept (SNAP-Surface 488); label: 3' end held by stalled T7 RNA polymerase

**Q.** How did the Kd turn out when B1 was run?
**A.** Its Kd is 0.00758 ± 0.00034 µM.

**Q.** Which Kd does the source give for B2 here?
**A.** The Kd was 0.039 ± 0.007 µM.

**Q.** For B3, which Kd is on record?
**A.** Its Kd is 0.0127 ± 0.0005 µM.

**Q.** How did the Kd turn out when B4 was run?
**A.** Its Kd is 0.0276 ± 0.0028 µM.

**Q.** For B5, which Kd is on record?
**A.** The Kd was about 0.07 µM.

**Q.** For B6, which Kd is on record?
**A.** The Kd was 0.0093 ± 0.0006 µM.

**Q.** For B7, which Kd is on record?
**A.** Its Kd is 0.0097 ± 0.0007 µM.

**Q.** Which Kd does the source give for B8 here?
**A.** Its Kd is 0.039 ± 0.005 µM.

**Q.** How did the Kd turn out when B9 was run?
**A.** The Kd was 0.0072 ± 0.0005 µM.

**Q.** B10 was tested. Which Kd did it give?
**A.** The Kd was 0.00746 ± 0.00033 µM.

**Q.** How did the Kd turn out when B11 was run?
**A.** Its Kd is 0.00824 ± 0.00034 µM.

**Q.** For B12, which Kd is on record?
**A.** The Kd was 0.048 ± 0.007 µM.

**Q.** With B13 as the binder, how does the Kd read?
**A.** Its Kd is 0.028 ± 0.007 µM.

**Q.** How did the Kd turn out when B14 was run?
**A.** The Kd was 0.0134 ± 0.0004 µM.

**Q.** How did the Kd turn out when B15 was run?
**A.** The Kd was 0.03 ± 0.004 µM.

**Q.** How did the Kd turn out when B16 was run?
**A.** The Kd was 0.0123 ± 0.0005 µM.

**Q.** For B17, which Kd is on record?
**A.** Its Kd is 0.0223 ± 0.0018 µM.

**Q.** For B18, which Kd is on record?
**A.** The Kd was 0.0158 ± 0.0009 µM.

**Q.** B19 was tested. Which Kd did it give?
**A.** Its Kd is 0.0133 ± 0.0006 µM.

**Q.** Which Kd does the source give for B20 here?
**A.** The Kd was 0.0155 ± 0.0008 µM.

**Q.** B21 was tested. Which Kd did it give?
**A.** The Kd was 0.0292 ± 0.0026 µM.

**Q.** How did the Kd turn out when B22 was run?
**A.** The Kd was 0.0088 ± 0.0004 µM.

**Q.** How did the Kd turn out when B23 was run?
**A.** Its Kd is 0.0262 ± 0.0022 µM.

**Q.** How did the Kd turn out when B24 was run?
**A.** Its Kd is 0.0085 ± 0.0006 µM.
